Measurements as given in patent publication US20120208770A1.

Biological target: vimentin of SCCVII cells (cell-surface protein of murine squamous cell carcinoma cells and SCCVII tumors in C3H mice) (mouse (murine SCCVII cells)) (UniProt P20152)
Assay: cell-based or functional assay

Chain of UniProt P20152 (P20152 2-466): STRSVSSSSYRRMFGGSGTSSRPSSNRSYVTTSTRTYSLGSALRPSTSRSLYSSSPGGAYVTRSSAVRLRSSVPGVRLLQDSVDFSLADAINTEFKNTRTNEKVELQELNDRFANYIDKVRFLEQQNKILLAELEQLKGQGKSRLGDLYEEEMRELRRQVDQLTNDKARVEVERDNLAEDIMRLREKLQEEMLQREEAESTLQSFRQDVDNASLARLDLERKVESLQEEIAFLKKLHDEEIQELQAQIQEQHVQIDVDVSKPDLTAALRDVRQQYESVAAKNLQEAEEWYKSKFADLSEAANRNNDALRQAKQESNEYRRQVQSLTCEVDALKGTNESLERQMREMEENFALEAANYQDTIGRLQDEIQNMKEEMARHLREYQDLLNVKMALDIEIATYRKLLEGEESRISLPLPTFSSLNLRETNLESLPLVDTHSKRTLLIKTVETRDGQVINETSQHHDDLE

B1: CHP-biotin (NH2-…-biotin) (peptide)
peptide: H-VNTANSTGG-biotin
accumulation of peptide-biotin in SCCVII tumor (positive per field, DAB staining), co-administered with anti-vimentin (positive per field): 1.2 | accumulation of peptide-biotin in SCCVII tumor (positive per field, DAB staining), without anti-vimentin (positive per field): 19.6
